In patent US12723078 (University of Texas, dated 2026):

How the values were obtained:
recombinant LILRB1 [1] = target: T1, recombinant LILRB1 (human, UniProt Q8NHL6 24-461); assay: BLI (Octet RED96), antibody on biosensor, recombinant LILRB1 in solution;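 also: Background-subtracted sensorgrams fitted with a one-to-one binding model, KD taken as koff over kon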
T1 construct: LILRB1-Fc proteins were also made; also called LILRB1 recombinant proteins
Method: Following a short baseline in kinetics buffer for 20 s, the loaded biosensors were exposed to solutions of recombinant LILRB1 in a range of concentrations (0-500 nM). After background was subtracted, data was fit to a 1:1 binding model to extract an association rate ($kon$) and dissociation rate ($koff$). The KD was calculated using the ratio $koff/kon$. […] All experiments were performed with shaking at 1,000 rpm. All raw data was processed using ForteBio Octet Data Analysis Software 9.0.

recombinant LILRB1 [2] = target: T1, recombinant LILRB1; assay: ELISA, coated recombinant LILRB1, antibody titration;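 also: serially diluted anti-LILRB1 antibodies incubated 60 min at 37 °C on plates coated with 50 ng/well recombinant protein, TMB colorimetric development read as absorbance at 450 nm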
Method: ELISA. LILRB1 recombinant proteins (50 ng/well, 100 μL per well) were coated on Corning 96-well ELISA plates at 37° C. for 4 hrs. Plates were blocked for 2 hrs at 37° C. with 5% non-fat milk. After washing with PBST, 100 μL of serial diluted anti-LILRB1 antibodies were added and incubated for 60 min at 37° C. […] Plates were washed again with PBST for another 5 times, then the immunoreactions were developed with TMB substrates (Sigma, Cat #T0440) and stopped by the addition of 2 M H_2SO_4 before the plate was read at 450 nm.

T1 sequence (Q8NHL6 24-461 limits assumed): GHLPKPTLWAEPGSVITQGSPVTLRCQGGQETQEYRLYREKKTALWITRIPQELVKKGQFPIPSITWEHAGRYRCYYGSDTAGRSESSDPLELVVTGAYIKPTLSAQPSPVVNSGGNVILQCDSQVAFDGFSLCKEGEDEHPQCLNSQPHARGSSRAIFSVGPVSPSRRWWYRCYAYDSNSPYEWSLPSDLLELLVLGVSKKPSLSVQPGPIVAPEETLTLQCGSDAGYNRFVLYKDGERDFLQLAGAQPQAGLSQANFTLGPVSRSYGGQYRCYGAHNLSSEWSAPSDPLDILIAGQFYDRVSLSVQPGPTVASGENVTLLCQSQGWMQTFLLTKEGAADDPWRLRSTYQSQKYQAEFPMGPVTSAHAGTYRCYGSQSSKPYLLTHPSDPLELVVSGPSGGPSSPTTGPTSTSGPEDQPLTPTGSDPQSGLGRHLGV

Row | Kd (recombinant LILRB1 [1]) [nM] | koff (recombinant LILRB1 [1]) [s⁻¹] | kon (recombinant LILRB1 [1]) [M⁻¹ s⁻¹] | EC50 (recombinant LILRB1 [2]) [µg/mL] | Binder
1 | 15.8 | 0.00506 | 320000 | 0.0944 | B1-#41-1 (antibody, V domains shown, recombinant rabbit IgG) VH: QSVKESGGDLVKPGASLTLTCTASGFSFSSSYWICWVRQAPGKGLEWIACIYAGSSGSTYYASWAKGRFTISKTSSTTVTLQMTSLTAADTATYFCARSTSGSYGAGLGLWGPGTLVTISS VL: ELDMTQTASPVSGAVGGTVTIKCQASQNIYNNIGWYQQKPGQPPNLLIYGPSYLASGVPSRFKGSRSGTEYTLTISDLECADAATYYCQSDDWMSISPDIVFGGGTEVEIK
2 |  |  |  | 0.038 | B1-#98 (antibody, V domains shown, recombinant rabbit IgG) VH: EQSLEESGGDLVKPEGSLTLTCTASGFSFSSSYWICWVRQAPGKGLEWIACVATGSGTTDYASWAKGRFTMSKTSSTTVTLQMTSLTVADTATYFCARIGAFYSFRLWGPGTLVTISS VL: ELDLTQTPGSVEAAVGGTVTIKCQAGQSIYNYLSWYQQKPGQPPKLLIYSASTLESGVPPRFSGSGSGTEFTLTISDLECADAATYSCQNNYGIGSNYGPGFGGGTEVEIK
3 | 0.619 | 5.59e-05 | 90300 | 0.00224 | B1-#176 (antibody, V domains shown, recombinant rabbit IgG) VH: QSLEESEGGLVKPGGTLTLTCTASGFSFSSSYCMCWVRQAPGKGLELIACIYTDSSGATYYASWAKGRFTISKSSSTTITLQMTSLTAADTATYFCARGWDYEDPGYTDTTYFSLWGPGTLVTVSS VL: ELDLTQTPSSVEAAVGGTVTIKCQASQTIYTNLAWYQQKPGQPPNLLIYAASTLASGVSSRFKGSGSGTEFTLTISDLECADAATYYCQSYYGSSTTGNGFGGGTEVEIK
4 |  |  |  | 0.0159 | B1-#7 (antibody, V domains shown, recombinant rabbit IgG) VH: EQSLEESGGGLVKPGASLTVTCAVSGFSLNSYAITWVRQAPGKGLEYIGYIDTGASITDYASWAKGRFTISKTSSTTVTLEMTSLTDADTATYFCARGFSMFKLWGPGTLVTISS VL: ELDLTQTPSSVSAAVGGTVTISCQASQSVYGNNRLAWYHQKPGQPPKRLIYLASTLDSGVPSRFKGAGSGTQFTLTISDLECDDAATYYCAGGYAGNFNAFGGGTEVEIK
5 | 0.505 | 5.63e-05 | 112000 | 0.0119 | B1-#3 (antibody, V domains shown, recombinant rabbit IgG) VH: QSLEESEGDLVKPEGSLTLTCKASGFDFSSDAMCWVRQAPGKGLEWIGCIYNGDEITDHASWAKGRFTISKTSPTTVTLQMTSLTVADTATYFCARAVYSDGGAGYPYMYGMDLWGPGTLVTVSS VL: ELDMTQTPASVEAAVGGTVTIKCQASQNIYSYLVWYQQKPGQPPKLLISKASTLASGVSSRFKGSGSGTEFTLTINDLECADAATYYCQTNYFSSTSHFGVFTFGGGTELEIK
6 | 1.37 | 0.000262 | 192000 | 0.00656 | B1-#173-2 (antibody, V domains shown, recombinant rabbit IgG) VH: QSVEESGGDLVKPGASLTLTCTASGFDFSSNAYLCWVRQAPGKGLEWIGCIYDGTSGDTYYANWAKGRFTISRSSSTTVTLQMTSLTAADTATYFCARDTRSSNYYFNLWGPGTLVTISS VL: ELVLTQTPSSTSAAVGGTVTINCQASQSVDNNKQLSWYQQKPGQPPKQLIYSASKLASGVPSRFKGSGSGTQFTLTISDLECDDAATYYCAGYYYSGSATDAWAFGGATEVEIN
7 |  |  |  | 0.0209 | B1-#10 (antibody, V domains shown, recombinant rabbit IgG) VH: EQSVEESGGGLVKPEGSLTLTCKASGLDFSSSYWICWVRQAPGKGLEWIACIDTGSSGSTYYASWAKGRFTVSKTSSTTVSLQMTSLTAADTATYFCASTPNSLGYDLWGPGTLVTISS VL: ELDLTQTPASVSAAVGGTVTIKCQASQNIVSNLAWYQQKPGQRPKLLIYYASTLASGVPSRFKGSGSGTEYTLTISDLECADAATYYCQNNAGIYGNYGHGFGGGTELEIK
8 | 3.14 | 0.000237 | 75700 | 0.011 | B1-#72-1 (antibody, V domains shown, recombinant rabbit IgG) VH: QSVKESGGGLVQPEGSLALTCKASGIDLSNYWYMCWVRQAPGKGLEWIGCVATDSSRTHYATWAKGRFTVSKTSSTTVTLQMTSLTAADTATYFCARGSGASTNGVWWVMGDGMDLWGPGTLVTISS VL: ELVMTQTPSSVSAAVGGTVTIKCQASPSISTYLSWYQQKPGQPPKRLINRASTLASGVPPRFKGSGAGTQFTLTISDLECADAATYYCQNNYHSGSSNGGGVAFGGGTEVEIK
9 |  |  |  | 0.04 | B1-#128 (antibody, V domains shown, recombinant rabbit IgG) VH: RAVGKESGGDLVTLGGSLKLSCKASGIDLSNFYYMCWVRQAPGKGLEWIGCVASDSSRTHYATWPKGRFTISKTSSTTVTLQMTSLTAADTATYFCARGSGASTNGVWWVMGDGMDLWGPGTLVTVSS VL: ELDMTQTPSSVSAAVGGTVTIKCQASQSISSYLSWYQQKPGQPPKRLIYKASTLPSGVPPRFKGSGSGTEFTLTISDLECADAATYYCQNNYHSGSSNGGGFAFGGGTQVEIK
10 |  |  |  | 0.0196 | B1-#19 (antibody, V domains shown, recombinant rabbit IgG) VH: EQSVEESGGGLVKPEGSLTLTCKASGLDFSSSYWSCWVRQTPGRGLEWIGCIDVGSSGGSYYASWARGRFTVSKGSSTTVTLQMTSLTAADTATYFCASTTTNVFGYDLWGPGTLVTVSS VL: ELDLTQTPASVSEPVGGTVTIKCQASQNIYNNLAWYQQKPGQPPKLLIYYASTLASGVPPRFSGSGSGTEYTLTISDLECDDAATYYCQNNAGIYGGYGHGFGGGTEVVVK
11 | 16.1 | 0.00145 | 89900 | 0.13 | B1-#74 (antibody, V domains shown, recombinant rabbit IgG) VH: QSLEESGGGLVKPGASLTLTCTASGFSLNRYYMCWVRQAPGKGLEWIGCIYSGSGSTYYASWAKGRFTISKTSSTTVTLQMTSLPAADTATYFCGRLDYRVIYAFNLWGPGTLVTISS VL: ELVLTQTPASVSAAVGGTVTINCQASQSIGSGNLAWYQQKPGQPPKLLIYLASTLASGVPPRFKGSGSGTEFTLTISDLECDDAATYYCQYTYYGTTYDNAFGGGTELEIK
12 |  |  |  | 0.00826 | B1-#226 (antibody, V domains shown, recombinant rabbit IgG) VH: QEQLVESGGGLVQPEGSLTLTCTASGFSFSSRQYISWVRRAPGKGLEWIGAIVTVNNKVHYANWAKGRFTISEASSTTVTLQMTSLTAADTATYFCARWRTFGLWGPGTLVTVSS VL: ELVLTQTPSSKSVAVGDTVTINCQASENVYSNNYTSWFQQKPGQPPKQLLYYAAYRASGVPSRFKGSGSGTEFTLSISDVVCDDAATYYCSGHKDYSDDGSTFGGGTEVVVK
13 |  |  |  | 0.0132 | B1-#25 (antibody, V domains shown, recombinant rabbit IgG) VH: EQSVKESGGGLVQPEGSLTLTCKVSGIDFNYYNYYYMCWVRQAPGKGLEWIGCMSTASANIYLASWAKGRFTISEASSTTVTLQMTSLTAADTATYFCAKSHGGDGGYGVVLWGPGTLVTISS VL: ELDLTQTPFSVSAAVGGTVTIKCQASETISNRLAWYQQKPGQPPKLLIYSASTLESGVPSRFKGSGSGTEFTLTISDLECADAATYYCQSIRSSSGIVHPNTFGGGTEVEIK
14 |  |  |  | 0.0182 | B1-#18 (antibody, V domains shown, recombinant rabbit IgG) VH: EQSVKESGGGLVKPGGTLTLTCIVSGFSLSRYAVTWVRQAPGKGPEWIGYIDTSSGNKDYANWVNGRFTISKTSSTTVTLQMTSLTAADTATYFCARGFSMFKLWGPGTLVTISS VL: ELVMTQTPSSVSAAVGGTVTISCQASQSVYNNNNLAWYQQKPGQPPKRLIYSASTLDSGVPSRFSGSGSGTQFTLTISDLECDDAATYYCAGGYTYNINIFGGGTEVEIK
15 |  |  |  | 0.0178 | B1-#110 (antibody, V domains shown, recombinant rabbit IgG) VH: QSLEESGGDLVKPEGSLTLTCTASGFSFSSSYWICWVRQAPGKGLEWIGCIYAGNSANTYYASWAKGRFTISKTSSTTVTLQLTSLTAADTATYFCASRNGGAPDGLNLWGPGTLVTISS VL: ELDLTQTPASVEAAVGGTVTIKCQASLNINSWLAWYQQKPGQPPKLLISYTSSLASGVPSRFKGSGSGTEYTLTINDLECADAATYYCQTTYFGTNGGGFGGGTEVEIK
16 |  |  |  | 0.0076 | B1-#125 (antibody, V domains shown, recombinant rabbit IgG) VH: EQSLEESGGGLVQPEGSLTLTCTASGFSFTKNYYMCWVRQAPGKGLEWIGCIYAGSTNTFYASWAKGRFTISKASSTTVDLKMTSLTVADTATYFCARDFVSYLNLWGPGTLVTVSS VL: ELDLTQTPSSSSAAVGGTVTINCQASQSVYNKNYLSWFQQKPGQPPKLLIYYASTLASGVPSRFKGSGSGTEFTLTISDVVCDDAATYYCAAYKGVSDDGISFGGGTEVEIK
17 |  |  |  | 0.151 | B1-#196-2 (antibody, V domains shown, recombinant rabbit IgG) VH: QEQLVESGGGLVQPEGSLTLTCTDSGFSFTKNYYMCWVRQAPGKGLEWIGCIYAGSTNTFYASWAKGRFTISKASSTTVDLKMTSLTVADTATYFCARDFVSYLNLWGPGTLVTVSS VL: ELDMTQTPSSTSAAVGGTVTIKCQASQSVYNNNQLSWFQQKPGQPPKRLIYGASTLESGVPSRFSGSGSGTQFTLTISDLECDDAATYYCQGAVSSDYYPFGGGTEVEIK
18 |  |  |  | 0.052 | B1-#115 (antibody, V domains shown, recombinant rabbit IgG) VH: EQSVKESGGGLVQPEGSLTLTCTASGFSFSSSYWICWVRQAPGKGLEWIGCIATGTGSTYYANWVNGRFTMSKPSSTTVTLQMTTLTAADTATYFCARGGGYWSFSLWGPGTLVTISS VL: ELVMTQTPSSVEAAVGGTVTNKCQASEDIYSNLAWYQQKPGQPPKLLIYGATTLASGVPSRFKGSGSGTEFTLTISDLECADAATYYCQAESNDVWAFGGGTEVVVK
19 | 8.54 | 0.000338 | 39600 | 0.482 | B1-#93 (antibody, V domains shown, recombinant rabbit IgG) VH: EQSVEESGGDLVKPGTSLTLTCTASGFSFSGNTICWVRQAPGKRPEWIACIYPSSTSITTYATWAKGRFTVSKTSSTTVTLQMTSLTAADTATYFCARRYAAFLTYGSGAFDPWGPGTLVTISS VL: ELDLTQTPASVSAAVGGTVTINCQASESIGSALAWYQQKPGQPPKLLIYSASALASGVPSRFKGSGSGTEYTLTISDLECADAATYYCQSYYGSGTTALDTFGGGTEVEIK
20 | 0.611 | 8.62e-05 | 141000 | 0.0292 | B1-#22 (antibody, V domains shown, recombinant rabbit IgG) VH: EQSLEESGGGLVKPGASLTLTCKASGFDFSSNDYMCWVRQAPGKGLEWIGCIYGGDGHTYYATWAKGRFTISKASSTTVTLQMTSLTAADTASYFCARGYSYGDTGYADAILTLDLWGPGTLVTVSS VL: ELDLTQTPASVEAAVGGTVTIKCQASQTIGSYLSWYQQKPGQRPKLLIYEASKLASGVPSWFKGSGSGTEFTLTISDLECADAATYYCQSNYYRAGGNYGGAFGGGTEVEIK
